* marks the point of attachment. Stearoyl = CCCCCCCCCCCCCCCCCC(=O)*; Palmitoyl = CCCCCCCCCCCCCCCC(=O)*; Lauroyl = CCCCCCCCCCCC(=O)*; Octanoyl = CCCCCCCC(=O)*
T1: N39 (HIV-1, N-terminal acetyl (Ac-); C-terminal amide (-NH2))
T1 peptide: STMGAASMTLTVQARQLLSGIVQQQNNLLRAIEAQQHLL

B1: LP-62 (peptide)
peptide: Ac-EQKIEELLKKAEEQQKKNEEELKKLEK(Palmitoyl)-NH2
SMILES: CCCCCCCCCCCCCCCC(=O)NCCCC[C@H](NC(=O)[C@H](CCC(=O)O)NC(=O)[C@H](CC(C)C)NC(=O)[C@H](CCCCN)NC(=O)[C@H](CCCCN)NC(=O)[C@H](CC(C)C)NC(=O)[C@H](CCC(=O)O)NC(=O)[C@H](CCC(=O)O)NC(=O)[C@H](CCC(=O)O)NC(=O)[C@H](CC(N)=O)NC(=O)[C@H](CCCCN)NC(=O)[C@H](CCCCN)NC(=O)[C@H](CCC(N)=O)NC(=O)[C@H](CCC(N)=O)NC(=O)[C@H](CCC(=O)O)NC(=O)[C@H](CCC(=O)O)NC(=O)[C@H](C)NC(=O)[C@H](CCCCN)NC(=O)[C@H](CCCCN)NC(=O)[C@H](CC(C)C)NC(=O)[C@H](CC(C)C)NC(=O)[C@H](CCC(=O)O)NC(=O)[C@H](CCC(=O)O)NC(=O)[C@@H](NC(=O)[C@H](CCCCN)NC(=O)[C@H](CCC(N)=O)NC(=O)[C@H](CCC(=O)O)NC(C)=O)[C@@H](C)CC)C(N)=O
notes: N-terminally truncated, based on LP-52
B2: LP-64 (peptide)
peptide: Ac-KIEELLKKAEEQQKKNEEELKKLEK(Palmitoyl)-NH2
SMILES: CCCCCCCCCCCCCCCC(=O)NCCCC[C@H](NC(=O)[C@H](CCC(=O)O)NC(=O)[C@H](CC(C)C)NC(=O)[C@H](CCCCN)NC(=O)[C@H](CCCCN)NC(=O)[C@H](CC(C)C)NC(=O)[C@H](CCC(=O)O)NC(=O)[C@H](CCC(=O)O)NC(=O)[C@H](CCC(=O)O)NC(=O)[C@H](CC(N)=O)NC(=O)[C@H](CCCCN)NC(=O)[C@H](CCCCN)NC(=O)[C@H](CCC(N)=O)NC(=O)[C@H](CCC(N)=O)NC(=O)[C@H](CCC(=O)O)NC(=O)[C@H](CCC(=O)O)NC(=O)[C@H](C)NC(=O)[C@H](CCCCN)NC(=O)[C@H](CCCCN)NC(=O)[C@H](CC(C)C)NC(=O)[C@H](CC(C)C)NC(=O)[C@H](CCC(=O)O)NC(=O)[C@H](CCC(=O)O)NC(=O)[C@@H](NC(=O)[C@H](CCCCN)NC(C)=O)[C@@H](C)CC)C(N)=O
notes: as for B1
B3: LP-88 (peptide)
peptide: Ac-EQKIEELLKKAEEQQKKNEEELKKLEK(Stearoyl)-NH2
SMILES: CCCCCCCCCCCCCCCCCC(=O)NCCCC[C@H](NC(=O)[C@H](CCC(=O)O)NC(=O)[C@H](CC(C)C)NC(=O)[C@H](CCCCN)NC(=O)[C@H](CCCCN)NC(=O)[C@H](CC(C)C)NC(=O)[C@H](CCC(=O)O)NC(=O)[C@H](CCC(=O)O)NC(=O)[C@H](CCC(=O)O)NC(=O)[C@H](CC(N)=O)NC(=O)[C@H](CCCCN)NC(=O)[C@H](CCCCN)NC(=O)[C@H](CCC(N)=O)NC(=O)[C@H](CCC(N)=O)NC(=O)[C@H](CCC(=O)O)NC(=O)[C@H](CCC(=O)O)NC(=O)[C@H](C)NC(=O)[C@H](CCCCN)NC(=O)[C@H](CCCCN)NC(=O)[C@H](CC(C)C)NC(=O)[C@H](CC(C)C)NC(=O)[C@H](CCC(=O)O)NC(=O)[C@H](CCC(=O)O)NC(=O)[C@@H](NC(=O)[C@H](CCCCN)NC(=O)[C@H](CCC(N)=O)NC(=O)[C@H](CCC(=O)O)NC(C)=O)[C@@H](C)CC)C(N)=O
B4: LP-51 (peptide)
peptide: Ac-LEANIEELLKKAEEQQKKNEEELKKLEK(Palmitoyl)-NH2
SMILES: CCCCCCCCCCCCCCCC(=O)NCCCC[C@H](NC(=O)[C@H](CCC(=O)O)NC(=O)[C@H](CC(C)C)NC(=O)[C@H](CCCCN)NC(=O)[C@H](CCCCN)NC(=O)[C@H](CC(C)C)NC(=O)[C@H](CCC(=O)O)NC(=O)[C@H](CCC(=O)O)NC(=O)[C@H](CCC(=O)O)NC(=O)[C@H](CC(N)=O)NC(=O)[C@H](CCCCN)NC(=O)[C@H](CCCCN)NC(=O)[C@H](CCC(N)=O)NC(=O)[C@H](CCC(N)=O)NC(=O)[C@H](CCC(=O)O)NC(=O)[C@H](CCC(=O)O)NC(=O)[C@H](C)NC(=O)[C@H](CCCCN)NC(=O)[C@H](CCCCN)NC(=O)[C@H](CC(C)C)NC(=O)[C@H](CC(C)C)NC(=O)[C@H](CCC(=O)O)NC(=O)[C@H](CCC(=O)O)NC(=O)[C@@H](NC(=O)[C@H](CC(N)=O)NC(=O)[C@H](C)NC(=O)[C@H](CCC(=O)O)NC(=O)[C@H](CC(C)C)NC(C)=O)[C@@H](C)CC)C(N)=O
B5: LP-55 (peptide)
peptide: Ac-WEQKIEELLKKAEEQQKKNEEELKK(Palmitoyl)-NH2
SMILES: CCCCCCCCCCCCCCCC(=O)NCCCC[C@H](NC(=O)[C@H](CCCCN)NC(=O)[C@H](CC(C)C)NC(=O)[C@H](CCC(=O)O)NC(=O)[C@H](CCC(=O)O)NC(=O)[C@H](CCC(=O)O)NC(=O)[C@H](CC(N)=O)NC(=O)[C@H](CCCCN)NC(=O)[C@H](CCCCN)NC(=O)[C@H](CCC(N)=O)NC(=O)[C@H](CCC(N)=O)NC(=O)[C@H](CCC(=O)O)NC(=O)[C@H](CCC(=O)O)NC(=O)[C@H](C)NC(=O)[C@H](CCCCN)NC(=O)[C@H](CCCCN)NC(=O)[C@H](CC(C)C)NC(=O)[C@H](CC(C)C)NC(=O)[C@H](CCC(=O)O)NC(=O)[C@H](CCC(=O)O)NC(=O)[C@@H](NC(=O)[C@H](CCCCN)NC(=O)[C@H](CCC(N)=O)NC(=O)[C@H](CCC(=O)O)NC(=O)[C@H](Cc1c[nH]c2ccccc12)NC(C)=O)[C@@H](C)CC)C(N)=O
notes: LP-52 without the C-terminal LEK
B6: LP-63 (peptide)
peptide: Ac-QKIEELLKKAEEQQKKNEEELKKLEK(Palmitoyl)-NH2
SMILES: CCCCCCCCCCCCCCCC(=O)NCCCC[C@H](NC(=O)[C@H](CCC(=O)O)NC(=O)[C@H](CC(C)C)NC(=O)[C@H](CCCCN)NC(=O)[C@H](CCCCN)NC(=O)[C@H](CC(C)C)NC(=O)[C@H](CCC(=O)O)NC(=O)[C@H](CCC(=O)O)NC(=O)[C@H](CCC(=O)O)NC(=O)[C@H](CC(N)=O)NC(=O)[C@H](CCCCN)NC(=O)[C@H](CCCCN)NC(=O)[C@H](CCC(N)=O)NC(=O)[C@H](CCC(N)=O)NC(=O)[C@H](CCC(=O)O)NC(=O)[C@H](CCC(=O)O)NC(=O)[C@H](C)NC(=O)[C@H](CCCCN)NC(=O)[C@H](CCCCN)NC(=O)[C@H](CC(C)C)NC(=O)[C@H](CC(C)C)NC(=O)[C@H](CCC(=O)O)NC(=O)[C@H](CCC(=O)O)NC(=O)[C@@H](NC(=O)[C@H](CCCCN)NC(=O)[C@H](CCC(N)=O)NC(C)=O)[C@@H](C)CC)C(N)=O
notes: N-terminally truncated, based on LP-52; also called P63 with C16

Biological target: T1, N39
Assay: circular dichroism temperature scan at 220 nm of the 1:1 mixture with N39, 10 µM each in PBS pH 7.2

| Protein | Tm value of the complex [°C] |
| --- | --- |
| B1 | > 70 |
| B2 | > 70 |
| B3 | 76.5 |
| B4 | 72 |
| Ac-WEQKIEELLKKAEEQQKKNEEELKKLEK(Lauroyl)-NH2 [LP-81] | 74.1 |
| Ac-WEQKIEELLKKAEEQQKKNEEELKKLEK(Octanoyl)-NH2 [LP-82] | 65.1 |
| B5 | 63.1 |
| B6 | > 70 |

Source: patent US20210277068A1 (SHANXI KANGBAO BIOLOGICAL PRODUCT, published 2021)
